T1: Yhr016c SH3 (YSC84_YEAST), P32793
T1 chain: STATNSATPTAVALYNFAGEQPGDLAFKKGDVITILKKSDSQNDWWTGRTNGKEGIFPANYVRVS

T2: Boi1 SH3 (BOI1_YEAST), P38041
T2 chain: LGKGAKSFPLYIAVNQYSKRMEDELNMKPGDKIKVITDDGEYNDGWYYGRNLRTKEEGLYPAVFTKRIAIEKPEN

T3: Yfr024 SH3 (LSB3_YEAST), P43603
T3 chain: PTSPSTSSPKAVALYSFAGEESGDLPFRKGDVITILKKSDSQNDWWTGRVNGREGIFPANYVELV

T4: Rvs167 SH3 (RV167_YEAST), P39743
T4 chain: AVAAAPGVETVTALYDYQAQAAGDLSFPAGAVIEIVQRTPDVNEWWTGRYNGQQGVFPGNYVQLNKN

T5: Boi2 SH3 (BOI2_YEAST), P39969
T5 chain: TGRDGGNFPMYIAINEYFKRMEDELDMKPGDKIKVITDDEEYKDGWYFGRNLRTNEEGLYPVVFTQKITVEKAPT


Key:
Assay in all cases: SPOT array
[1] = molecular target: T1, Yhr016c SH3 (YSC84_YEAST), P32793
[2] = molecular target: T2, Boi1 SH3 (BOI1_YEAST), P38041
[3] = molecular target: T3, Yfr024 SH3 (LSB3_YEAST), P43603
[4] = molecular target: T4, Rvs167 SH3 (RV167_YEAST), P39743
[5] = molecular target: T5, Boi2 SH3 (BOI2_YEAST), P39969

| normalised SPOT signal, Boehringer light units (BLU); mean over the file's lines of this peptide [1] | normalised SPOT signal, Boehringer light units (BLU); mean over the file's lines of this peptide [2] | normalised SPOT signal, Boehringer light units (BLU); mean over the file's lines of this peptide [3] | normalised SPOT signal, Boehringer light units (BLU); mean over the file's lines of this peptide [4] | normalised SPOT signal, Boehringer light units (BLU); mean over the file's lines of this peptide [5] | Binder |
| --- | --- | --- | --- | --- | --- |
| 150 | 76.1 | 7.9 | 7.6 | 35.2 | LDHPNIPWKLIISG [YJR117W 8-21] |
| 323 | 40.1 | 85.1 | 0 | 40.7 | LIPPGFPTKNYPPG [YCL010C 185-198] |
| 344 | 48 | 538 | 5.9 | 12.9 | LDYPKAPIKLTMKS [YIL161W 160-173] |
| 250 | 140 | 1510 | 59.5 | 25.3 | LGAPFSPRRKDKLV [YJL172W 363-376] |
| 224 | 56.5 | 314 | 49.4 | 15 | LLPPTDPFRRKHEQ [YHR148W 63-76] |
| 184 | 91.9 | 296 | 39.3 | 99 | LKYPYFPTKMSYLQ [YNL059C 229-242] |
| 59.7 | 229 | 1480 | 25.7 | 13.3 | LLKPETPSKRLVIR [YGL216W 249-262] |
| 150 | 103 | 288 | 107 | 77.4 | LHGPFKPVKSSNGE [YER134C 25-38] |
| 68.6 | 50.1 | 61 | 27.7 | 52.1 | LENPSTPDKTEEDW [YKL010C 724-737] |
| 29100 | 143 | 14400 | 25900 | 31.9 | LDRPQLPPRQVVNA [YMR192W 159-172] |
| 142 | 146 | 277 | 56.4 | 31.8 | LHYPYGPARNPSYI [YJR126C 313-326] |
| 302 | 24.8 | 0 | 28.2 | 19.8 | LIDPSTPDKAAKKD [YGR083C 353-366] |
| 174 | 91.9 | 88.8 | 19.9 | 30.3 | LFGPSFPNKTTVEI [YNL197C 178-191] |
| 973 | 95.2 | 3060 | 189 | 560 | LIMPIYPYRLVSTI [YIL173W 525-538] |
| 211 | 153 | 1260 | 129 | 234 | LHVPRNPSKSRRGS [YLR310C 161-174] |
| 227 | 0 | 126 | 47.9 | 13.6 | LHDPLVPIKSYGLT [YMR185W 739-752] |
| 366 | 10.8 | 1420 | 35.3 | 17.8 | LIPPLHPLKKQHPK [YIL089W 44-57] |
| 251 | 133 | 6130 | 141 | 45.2 | LKRPILPSKNMDHT [YOR191W 344-357] |
| 286 | 30300 | 541 | 75.5 | 68.8 | LIQPTAPIRDPTRF [YIR029W 48-61] |
| 53.5 | 57.9 | 94.9 | 26.4 | 10.2 | LLAPNSPLKNTKSV [YOR124C 391-404] |
| 161 | 98.8 | 68.3 | 10.7 | 73.9 | LGEPFDPNKHEATF [YOR232W 175-188] |
| 96.5 | 86.5 | 19.3 | 8.3 | 37.3 | LEQPAEPSKLAKKL [YMR108W 66-79] |
